Laboratory results taken from patent US20190218308A1 (INNATE PHARMA, published 2019).

Tests used:
[1] = biological target: T1, cynomolgus (macaca fascicularis) CD39 on CHO cells (cynomolgus (macaca fascicularis), UniProt A0A7N9DGH8 1-510); assay: flow cytometry titration on CHO cells expressing cynomolgus CD39 (panel CHO-cyCD39)
T1 construct: whole, on cells; also called CHO-cyCD39; cynomolgus CD39
T1 sequence: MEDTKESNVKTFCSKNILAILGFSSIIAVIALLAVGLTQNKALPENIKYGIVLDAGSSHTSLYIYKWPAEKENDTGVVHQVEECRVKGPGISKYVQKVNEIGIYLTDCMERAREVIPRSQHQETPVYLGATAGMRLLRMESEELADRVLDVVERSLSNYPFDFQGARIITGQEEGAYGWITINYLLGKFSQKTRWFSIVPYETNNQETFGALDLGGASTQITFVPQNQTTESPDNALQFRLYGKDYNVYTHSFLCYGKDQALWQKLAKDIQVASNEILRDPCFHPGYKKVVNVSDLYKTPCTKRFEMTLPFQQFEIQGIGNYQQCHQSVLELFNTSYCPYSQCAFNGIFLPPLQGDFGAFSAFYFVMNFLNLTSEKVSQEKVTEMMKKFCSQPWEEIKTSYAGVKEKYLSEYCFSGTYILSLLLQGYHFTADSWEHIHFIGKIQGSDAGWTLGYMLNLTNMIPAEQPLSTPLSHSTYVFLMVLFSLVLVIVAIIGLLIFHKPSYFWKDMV
Experimental: (§1) Cells were incubated with various concentration of unlabeled anti-CD39 antibody from 30 μg/ml to 5×10⁻⁴ μg/ml, for 30 minutes at 4° C. After washes, cells were incubated with Goat anti-mouse H+L labeled secondary antibody for 30 min at 4° C.

[2] = biological target: T2, human CD39 (NTPDase1, ENTPD1), membrane-bound, on cells (human, UniProt P49961 1-510); assay: flow cytometry on Ramos lymphoma cells, second set of experiments
T2 construct: Expressed on CHO cells, Hek-293T cells (wild type) or endogenous on Ramos cells; also called huCD39; CHO-huCD39
T2 sequence: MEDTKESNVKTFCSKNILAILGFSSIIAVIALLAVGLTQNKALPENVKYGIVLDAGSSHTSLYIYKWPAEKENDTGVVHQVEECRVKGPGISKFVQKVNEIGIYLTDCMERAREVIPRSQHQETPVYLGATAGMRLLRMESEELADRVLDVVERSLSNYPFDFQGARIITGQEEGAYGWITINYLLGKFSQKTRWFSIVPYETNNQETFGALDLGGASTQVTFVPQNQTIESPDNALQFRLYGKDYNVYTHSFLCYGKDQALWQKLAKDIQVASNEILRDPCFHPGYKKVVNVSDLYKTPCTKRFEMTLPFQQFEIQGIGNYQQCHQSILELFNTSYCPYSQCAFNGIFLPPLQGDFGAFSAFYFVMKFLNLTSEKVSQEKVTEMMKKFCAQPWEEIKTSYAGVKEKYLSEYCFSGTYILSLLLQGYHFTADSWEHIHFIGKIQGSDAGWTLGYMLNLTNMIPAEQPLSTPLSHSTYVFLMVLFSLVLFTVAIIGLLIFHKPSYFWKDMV
Experimental: as §1

[3] = biological target: T3, Human CD39-L3, also known as NTPDase3 or ENTPD3 (human, UniProt O75355 44-485, limits assumed); assay: ELISA on coated recombinant human CD39-L3 (panel huCD39 L3)
T3 construct: Recombinant protein coated in ELISA
T3 sequence: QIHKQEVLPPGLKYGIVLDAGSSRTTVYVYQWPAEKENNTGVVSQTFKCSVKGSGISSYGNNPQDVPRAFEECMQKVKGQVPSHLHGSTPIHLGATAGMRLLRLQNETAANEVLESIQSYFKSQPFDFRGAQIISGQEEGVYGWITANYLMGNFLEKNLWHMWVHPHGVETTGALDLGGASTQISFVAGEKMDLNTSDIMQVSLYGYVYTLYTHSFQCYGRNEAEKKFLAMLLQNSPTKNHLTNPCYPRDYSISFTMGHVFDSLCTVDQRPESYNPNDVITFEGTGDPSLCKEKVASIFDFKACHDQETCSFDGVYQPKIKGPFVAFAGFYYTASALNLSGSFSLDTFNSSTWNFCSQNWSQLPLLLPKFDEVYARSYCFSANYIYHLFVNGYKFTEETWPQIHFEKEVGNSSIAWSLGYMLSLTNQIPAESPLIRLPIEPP
Experimental: Wells were washed in TBS Tween 20, and further saturated 2H at RT in TBS Blocking buffer. Dose range concentration of primary antibody was incubated in TBS blocking buffer for 2 h at RT. Wells were washed in TBS Tween 20. […] Optical density was measured on Enspire™ at OD=450.

B1: antibody I-394 (antibody, human IgG1, kappa, V domains shown)
VH: EVQLQQSGPELVKPGASVKMSCKASGYTFTDYNMHWVKQSHGRTLEWIGYIVPLNGGSTFNQKFKGRATLTVNTSSRTAYMELRSLTSEDSAAYYCARGGTRFAYWGQGTLVTVSA
VL: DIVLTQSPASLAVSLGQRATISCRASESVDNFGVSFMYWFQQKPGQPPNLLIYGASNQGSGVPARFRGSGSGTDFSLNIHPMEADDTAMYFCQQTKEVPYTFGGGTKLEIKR
- EC50 (read off the curve) [1]: ~0.4 µg/mL
- EC50 [2]: 0.19 µg/mL
- binding result [3]: no binding (tested: about 50 µg/ml)
